Experimental data from US11732249 (WASHINGTON UNIVERSITY, dated 2023).

Molecular target: T1, soluble bovine cation-independent mannose 6-phosphate receptor (CI-MPR), covalently conjugated to Cyanogen … (bovine, UniProt P08169 45-2313, limits assumed, covalently conjugated to Cyanogen bromide-activated-Sepharose 4B)
T1 construct: also called immobilized CI-MPR
Assay: CI-MPR-affinity bead pull-down from lysates of GNPTAB-/- HeLa cells transfected with empty vector, WT α/β precursor or DS1 mutant; western blot (FIG. 2C)
Method: (FIG. 2C) Western blot of GNPTAB^{-/-} HeLa cells co-transfected with the expression plasmids for the indicated proteins along with empty vector, WT α/β precursor or the DS1 mutant cDNA. Cell lysates were incubated with CI-MPR-affinity beads and the binding of the various proteins was determined by probing the blot with the following antibodies: Renin—anti-HA; NPC2, GP, Lamp1 and Lamp2 with antibodies generated against the native protein.

T1 sequence (P08169 45-2313 limits assumed): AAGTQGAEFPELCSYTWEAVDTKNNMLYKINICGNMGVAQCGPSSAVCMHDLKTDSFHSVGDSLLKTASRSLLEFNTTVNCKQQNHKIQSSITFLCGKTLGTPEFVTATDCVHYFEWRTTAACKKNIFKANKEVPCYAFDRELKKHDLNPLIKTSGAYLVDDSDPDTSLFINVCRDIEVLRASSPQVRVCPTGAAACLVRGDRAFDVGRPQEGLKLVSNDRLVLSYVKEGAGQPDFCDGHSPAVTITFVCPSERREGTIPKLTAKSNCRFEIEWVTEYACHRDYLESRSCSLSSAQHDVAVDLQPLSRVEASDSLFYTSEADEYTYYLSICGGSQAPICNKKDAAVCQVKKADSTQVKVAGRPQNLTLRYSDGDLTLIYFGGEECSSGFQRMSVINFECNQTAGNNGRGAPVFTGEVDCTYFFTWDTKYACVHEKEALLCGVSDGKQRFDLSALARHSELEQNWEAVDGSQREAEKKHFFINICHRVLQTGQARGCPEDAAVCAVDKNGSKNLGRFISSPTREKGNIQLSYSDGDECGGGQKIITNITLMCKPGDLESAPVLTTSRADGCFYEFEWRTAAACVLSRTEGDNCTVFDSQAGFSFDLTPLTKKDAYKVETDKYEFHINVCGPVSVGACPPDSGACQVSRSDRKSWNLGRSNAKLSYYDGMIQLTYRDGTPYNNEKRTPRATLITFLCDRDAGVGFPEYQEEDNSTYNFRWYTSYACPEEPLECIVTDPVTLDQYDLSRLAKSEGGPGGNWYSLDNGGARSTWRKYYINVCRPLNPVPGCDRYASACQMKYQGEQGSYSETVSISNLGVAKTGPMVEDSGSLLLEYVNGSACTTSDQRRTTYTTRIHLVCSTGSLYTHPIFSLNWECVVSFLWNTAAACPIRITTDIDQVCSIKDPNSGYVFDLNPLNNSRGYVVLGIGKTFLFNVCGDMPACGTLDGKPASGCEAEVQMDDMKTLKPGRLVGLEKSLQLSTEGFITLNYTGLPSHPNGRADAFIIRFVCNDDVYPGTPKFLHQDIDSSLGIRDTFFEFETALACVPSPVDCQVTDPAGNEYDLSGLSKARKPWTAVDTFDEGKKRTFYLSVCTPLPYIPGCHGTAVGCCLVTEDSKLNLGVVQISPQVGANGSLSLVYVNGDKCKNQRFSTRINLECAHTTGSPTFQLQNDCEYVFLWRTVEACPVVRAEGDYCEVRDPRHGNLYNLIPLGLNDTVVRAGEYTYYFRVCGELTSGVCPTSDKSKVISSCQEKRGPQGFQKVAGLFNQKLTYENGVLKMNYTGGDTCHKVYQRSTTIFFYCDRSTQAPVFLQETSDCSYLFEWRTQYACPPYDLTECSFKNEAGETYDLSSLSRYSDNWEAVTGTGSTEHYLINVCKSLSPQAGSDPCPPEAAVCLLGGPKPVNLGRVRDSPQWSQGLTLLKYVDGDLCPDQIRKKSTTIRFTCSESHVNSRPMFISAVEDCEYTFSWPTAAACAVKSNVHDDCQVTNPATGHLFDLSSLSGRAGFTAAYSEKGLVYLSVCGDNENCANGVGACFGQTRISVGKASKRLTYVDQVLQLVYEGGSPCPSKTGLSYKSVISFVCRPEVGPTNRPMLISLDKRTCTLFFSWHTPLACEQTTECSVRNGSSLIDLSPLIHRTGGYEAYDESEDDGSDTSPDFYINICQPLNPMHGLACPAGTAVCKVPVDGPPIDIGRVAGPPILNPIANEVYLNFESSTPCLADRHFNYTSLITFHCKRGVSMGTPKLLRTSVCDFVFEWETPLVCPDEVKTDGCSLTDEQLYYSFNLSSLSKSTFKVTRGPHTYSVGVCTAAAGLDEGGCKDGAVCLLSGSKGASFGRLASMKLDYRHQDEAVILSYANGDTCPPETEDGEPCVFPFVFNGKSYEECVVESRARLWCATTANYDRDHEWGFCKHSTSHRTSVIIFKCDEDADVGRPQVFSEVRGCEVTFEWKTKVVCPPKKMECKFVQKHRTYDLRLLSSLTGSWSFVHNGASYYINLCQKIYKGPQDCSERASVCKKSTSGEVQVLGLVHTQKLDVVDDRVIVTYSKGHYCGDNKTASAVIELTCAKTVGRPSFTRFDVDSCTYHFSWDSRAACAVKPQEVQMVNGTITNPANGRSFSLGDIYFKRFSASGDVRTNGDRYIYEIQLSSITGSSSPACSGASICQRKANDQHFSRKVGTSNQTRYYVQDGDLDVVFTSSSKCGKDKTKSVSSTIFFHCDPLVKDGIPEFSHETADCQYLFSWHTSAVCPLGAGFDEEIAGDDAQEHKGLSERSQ

B1: Lamp1 (other, UniProt P11279 29-417, looked up)
chain: AMFMVKNGNGTACIMANFSAAFSVNYDTKSGPKNMTFDLPSDATVVLNRSSCGKENTSDPSLVIAFGRGHTLTLNFTRNATRYSVQLMSFVYNLSDTHLFPNASSKEIKTVESITDIRADIDKKYRCVSGTQVHMNNVTVTLHDATIQAYLSNSSFSRGETRCEQDRPSPTTAPPAPPSPSPSPVPKSPSVDKYNVSGTNGTCLLASMGLQLNLTYERKDNTTVTRLLNINPNKTSASGSCGAHLVTLELHSEGTTVLLFQFGMNASSSRFFLQGIQLNTILPDARDPAFKAANGSLRALQATVGNSYKCNAEEHVRVTKAFSVNIFKVWVQAFKVEGGQFGSVEECLLDENSMLIPIAVGGALAGLVLIVLIAYLVGRKRSHAGYQTI
- binding result: no binding
